Assay results taken from paper PMC9160799, “PET Imaging of Acidic Tumor Environment With ^89Zr-labeled pHLIP Probes” (Frontiers in Oncology, 2022).
Values joined by “and” are separate entries in the source; they are usually repeats but may differ in a detail not shown here. Equal entries are not always repeated. “Also recorded” adds a separate entry of the source. Square brackets hold non-standard residues; d marks the D form. Peptide text beside a SMILES is read from it. * marks the point of attachment. X1 = CC(=O)N(O)CCCCCNC(=O)CCC(=O)N(O)CCCCCNC(=O)CCC(=O)N(O)CCCCCNC(=O)CCC(=O)N(O)CCCCCNC(=S)Nc1ccc(NC(=S)*)cc1

Tests used:
[1] = Post-mortem biodistribution, RM-1 tumor model; assay type: in vivo, male athymic nude mice; settings: male, athymic nude, mouse, in vivo, iv, 1.2 nmol, total radioactivity
Experimental: (§1) The media were provided by the MSK Media Preparation Core. […] Another aliquot was diluted with the medium so that 50 µL contained 1×10^6 cells.
(§2) The imaging and biodistribution studies were performed with male (RM-1 model) and female (4T1 model) athymic nude mice and the kidney-blocking experiments were performed with female SCID mice received from Charles River Laboratories (Stone Ridge, NY). After arrival, the mice were kept in the MSK vivarium for one week before any experimental handling was performed. The animals were allowed free access to water and food, and all animal care and experimental procedures were approved by the Institutional Animal Care and Use Committee (IACUC). For the subcutaneous allografts, a 1-to-1 ratio of Corning Matrigel Matrix and the cell solution was prepared and stored on ice for the injections. Each mouse received a subcutaneous injection of 100 µL (50 µL cell solution, viability > 90%, + 50 µL Matrigel) into the flank on the level of the right shoulder. The injections were performed under anesthesia (2% isoflurane, Baxter Healthcare, Deerfield, IL, USA).
(§3) The mice were intravenously injected (tail vein) with the radiolabeled pHLIP conjugates (1.2 nmol, 7.4 MBq/200 µCi, 100 µL, in sterile filtered PBS). The activity of the syringe prior to injection and after injection was used to determine the percent of injectate administered.
(§4) For the biodistribution studies the tumor-bearing mice were randomized before the injections. Only mice with suitable tumors (150–300 mm^3) were utilized. An exception was made for the 120-hour timepoint, for which only mice with smaller tumors (150 mm^3) were selected. The mice were grouped in cohorts of four. At the respective timepoint, the mice were euthanized (by CO2 asphyxiation, followed by cervical dislocation) and their blood was collected by cardiac puncture as a terminal procedure, followed by quick removal of the tumors. After this, the other organs/samples were collected. […] The exact activities of all samples of one mouse were determined by an Capintec® CRC-55tR dose calibrator. These decay-corrected measurements were used to determine a calibration factor and calibrate all counts to the corresponding activities. Activity concentrations were calculated as percentage injected dose per tissue weight (%ID/g wet tissue). All data was processed and visualized using Origin 8.5.

RM-1 tumor allografts = assay: Post-mortem biodistribution, RM-1 tumor model; assay type: in vivo, male athymic nude mice; settings: mouse, in vivo, iv, 1.2 nmol, 48 h
Experimental: as §1, §2, §3, §4

[2] = Tryptophan fluorescence spectra of pHLIP agents in states I, II, III; assay type: physicochemical; settings: for λmax of tryptophan fluorescence, state I: in solution; for λmax of tryptophan fluorescence, state I / λmax of tryptophan fluorescence, state II: pH 8, 25.0°C; for λmax of tryptophan fluorescence, state III / λmax of tryptophan fluorescence, state II: with POPC liposomes; for λmax of tryptophan fluorescence, state III: pH 4, 25.0°C
Experimental: (§5) The interaction of the pHLIP agents with liposomes was investigated by recording the tryptophan fluorescence and circular dichroism (CD) spectra by using a PC1 spectrofluorometer (ISS, Inc) and an MOS-450 spectrometer (Biologic, Inc), respectively, with temperature control set to 25.0°C. Liposomes, consisting of large unilamellar vesicles, were prepared by extrusion. POPC (1-palmitoyl-2-oleoyl-sn-glycero-3-phosphocholine) (Avanti Polar Lipids, Inc.) in chloroform was desolvated on a rotary evaporator and dried under vacuum for several hours. The phospholipid film was rehydrated in 10 mM phosphate buffer, pH 8.0, vortexed, and passed 21 times through the extruder (50 nm membrane).
(§6) Using an excitation wavelength of 295 nm, tryptophan fluorescence spectra were recorded from 310–400 nm. CD spectra were recorded from 190–260 nm with 1-nm steps. The concentration of the peptide and the POPC liposomes varied in different experiments: 5–15 μM of pHLIP agents and 1 mM of POPC liposomes.
The pH-dependent insertion of the peptides into the lipid bilayer of the POPC liposomes was studied by monitoring either the changes in tryptophan fluorescence spectra or changes in the molar ellipticity at 222 nm as a function of the pH value. After the addition of aliquots of HCl, the pH values of the solutions containing peptide and POPC liposomes were measured using an Orion PerHecT ROSS Combination pH Micro Electrode and an Orion Dual Star pH and ISE Benchtop Meter. Fluorescence spectra were analyzed using the Protein Fluorescence and Structural Tool Kit (PFAST) ([41]) to determine the positions of spectral maxima (λ max ). The λ max and millidegree data were normalized to 0–1 and were plotted as a function of pH. The pH-dependence was fit with the Henderson-Hasselbach equation to determine the cooperativity (n) and the mid-point (pK) of transition: […]

[3] = pH-dependent insertion into lipid bilayer of POPC liposomes (Trp fluorescence and CD); assay type: physicochemical; settings: with Zr, pH drop 8 to 3, Henderson-Hasselbalch fit
Experimental: as §5, §6
The pH-dependent insertion of the peptides into the lipid bilayer of the POPC liposomes was studied by monitoring either the changes in tryptophan fluorescence spectra or changes in the molar ellipticity at 222 nm as a function of the pH value. After the addition of aliquots of HCl, the pH values of the solutions containing peptide and POPC liposomes were measured using an Orion PerHecT ROSS Combination pH Micro Electrode and an Orion Dual Star pH and ISE Benchtop Meter. Fluorescence spectra were analyzed using the Protein Fluorescence and Structural Tool Kit (PFAST) ([41]) to determine the positions of spectral maxima (λ max ). The λ max and millidegree data were normalized to 0–1 and were plotted as a function of pH. The pH-dependence was fit with the Henderson-Hasselbach equation to determine the cooperativity (n) and the mid-point (pK) of transition:
Normalized pH dependence=1/1+10^n(pH−pK)

[4] = test system: kidney uptake of [89Zr]Zr-DFOsqa-Lys-Var3; assay: Kidney-blocking study (PET imaging); assay type: in vivo, healthy female SCID mice; settings: drug IV 30 min before 7.4 MBq [89Zr]Zr-DFOsqa-Lys-Var3 (1.2 nmol); two doses per drug, n=2 each; PET 24 h p.i. vs control mice
Experimental: as §2, with “USA). Palpable tumors of similar size (100–300 mm^3) developed 5–8 days after grafting.” for “USA).”
PET images were obtained at the respective timepoints with the mice under anesthesia (2% isoflurane) on a microPET Focus 120 (Concorde Microsystems) or an Inveon PET-CT (Siemens) rodent scanner. All images were analyzed using the Medical Imaging Data Examiner Amide (version 0.9.0) or the Inveon reconstruction software suite. The counting rates in the reconstructed images were converted to percent of injected dose per weight (%ID/g) by applying a system-specific calibration factor. At the final timepoint, the remaining mice were euthanized (by CO2 asphyxiation, followed by cervical dislocation) and their tumors were resected for histological analysis.
Additional experiments were performed to investigate the influence of various kidney-uptake blockers and diuretics. Healthy female SCID mice received a “blocking agent” 30 minutes prior to the injection of [^89Zr]Zr-DFOsqa-Lys-Var3 (7.4 MBq/200 µCi, 1.2 nmol). […] The experimental set-up can be found in Table S6 .
Table S6. Summary of the kidney-blocking study. Healthy female SCID mice (2 mice per experiment/ dosage + 2 control mice without treatment, total of 22 mice) received a blocking agent intravenously 30 minutes prior to the injection of 7.4 MBq/200 µCi [89Zr]Zr-DFOsqa-Lys-Var3 (1.2 nmol pHLIP).
The drug dose was calculated as weight of drug (mg) per weight of mouse (kg). A potential kidney […]
calibrated images to the control mice (24 hours post injection). No drug led to a significant reduction […]
drug (IV 30 min before dose [mg/kg] effect on kidney mechanism of action [89Zr]Zr-pHLIP) (n=2) uptake […]
and water from the body; acts as a diuretic […]
organic anion transporter; blocks the uptake of organic anions […]
tubule via inhibition of the Na/Cl symporter; acts as a diuretic […]
increased – serum levels decreased

[5] = change of Trp fluorescence maximum

CC(=O)N[C@H](C)C(=O)N[C@H](CCCCNC(=S)Nc1ccc(NC(=S)NCCCCCN(O)C(=O)CCC(=O)NCCCCCN(O)C(=O)CCC(=O)NCCCCCN(O)C(C)=O)cc1)C(=O)N[C@H](CC(=O)O)C(=O)N[C@H](CC(=O)O)C(=O)N[C@H](CCC(N)=O)C(=O)N[C@H](CC(N)=O)C(=O)N1CCC[C@@H]1C(=O)N[C@H](Cc1c[nH]c2ccccc12)C(=O)N[C@H](CCCNC(=N)N)C(=O)N[C@H](C)C(=O)N[C@H](Cc1ccc(O)cc1)C(=O)N[C@H](CC(C)C)C(=O)N[C@H](CC(=O)O)C(=O)N[C@H](CC(C)C)C(=O)N[C@H](CC(C)C)C(=O)N[C@H](Cc1ccccc1)C(=O)N1CCC[C@@H]1C(=O)N[C@@H](C(=O)N[C@H](CC(=O)O)C(=O)N[C@@H](C(=O)N[C@H](CC(C)C)C(=O)N[C@H](CC(C)C)C(=O)N[C@H](CC(C)C)C(=O)N[C@H](CC(=O)O)C(=O)N[C@H](CC(C)C)C(=O)N[C@H](CC(C)C)C(=O)N[C@H](Cc1c[nH]c2ccccc12)C(=O)N[C@H](C)C(=O)O)[C@H](C)O)[C@H](C)O (89Zr complex, metal not drawn) [DFO-Lys-Var3]
tissue uptake at 48 h ([1]; Blood uptake): 0.5 ± 0.1 %ID/g | tissue uptake at 48 h ([1]; Brain uptake): 0.06 ± 0.01 %ID/g | tissue uptake at 48 h ([1]; Heart uptake): 1.3 ± 0.03 %ID/g | tissue uptake at 48 h ([1]; Kidneys uptake): 27.9 ± 3.6 %ID/g | tissue uptake at 48 h ([1]; Liver uptake): 8.7 ± 0.8 %ID/g | tissue uptake at 48 h ([1]; Lungs uptake): 2 ± 0.6 %ID/g | tissue uptake at 48 h ([1]; Muscle uptake): 0.5 ± 0.1 %ID/g | tissue uptake at 48 h ([1]; Pancreas uptake): 1 ± 0.2 %ID/g | tissue uptake at 48 h ([1]; Skin uptake): 1.7 ± 0.3 %ID/g | tissue uptake at 48 h ([1]; Spleen uptake): 7.2 ± 0.7 %ID/g | tissue uptake at 48 h ([1]; Tibia uptake): 1.4 ± 0.2 %ID/g | Tumor uptake (RM-1 tumor allografts): 6.9 ± 1.9 %ID/g

CC(=O)N[C@H](C)C(=O)N[C@H](CCCCNC(=S)Nc1ccc(NC(=S)NCCCCCN(O)C(=O)CCC(=O)NCCCCCN(O)C(=O)CCC(=O)NCCCCCN(O)C(=O)CCC(=O)NCCCCCN(O)C(C)=O)cc1)C(=O)N[C@H](CC(=O)O)C(=O)N[C@H](CC(=O)O)C(=O)N[C@H](CCC(N)=O)C(=O)N[C@H](CC(N)=O)C(=O)N1CCC[C@@H]1C(=O)N[C@H](Cc1c[nH]c2ccccc12)C(=O)N[C@H](CCCNC(=N)N)C(=O)N[C@H](C)C(=O)N[C@H](Cc1ccc(O)cc1)C(=O)N[C@H](CC(C)C)C(=O)N[C@H](CC(=O)O)C(=O)N[C@H](CC(C)C)C(=O)N[C@H](CC(C)C)C(=O)N[C@H](Cc1ccccc1)C(=O)N1CCC[C@@H]1C(=O)N[C@@H](C(=O)N[C@H](CC(=O)O)C(=O)N[C@@H](C(=O)N[C@H](CC(C)C)C(=O)N[C@H](CC(C)C)C(=O)N[C@H](CC(C)C)C(=O)N[C@H](CC(=O)O)C(=O)N[C@H](CC(C)C)C(=O)N[C@H](CC(C)C)C(=O)N[C@H](Cc1c[nH]c2ccccc12)C(=O)N[C@H](C)C(=O)O)[C@H](C)O)[C@H](C)O (89Zr complex, metal not drawn) [DFO*-Lys-Var3] (Ac-[dA][dK](X1)[dD][dD][dQ][dN][dP][dW][dR][dA][dY][dL][dD][dL][dL][dF][dP][dT][dD][dT][dL][dL][dL][dD][dL][dL][dW][dA]-OH; C-terminus assumed)
λmax of tryptophan fluorescence, state I ([2]; with Zr, excitation 295 nm): 352.0 nm | λmax of tryptophan fluorescence, state III ([2]; with Zr): 341.4 nm | λmax of tryptophan fluorescence, state II ([2]; with Zr): 348.2 nm | λmax of tryptophan fluorescence, state I ([2]; without Zr): 351.9 nm | λmax of tryptophan fluorescence, state III ([2]; without Zr): 341.4 nm | λmax of tryptophan fluorescence, state II ([2]; without Zr): 349.3 nm | cooperativity (n), Fluor. [3, 5]: 0.79 and 0.8 | midpoint of transition (pK), Fluor. [3, 5]: 5.87 | cooperativity (n), CD ([3]; ellipticity at 222 nm (coil-helix transition)): 1.46 | midpoint of transition (pK), CD ([3]; ellipticity at 222 nm): 5.47

CC(=O)Nc1nnc(S(N)(=O)=O)s1 [acetazolamide]
effect on kidney uptake [4]: not significant; also recorded: none of these drugs led to a significant reduction of kidney uptake

CCCN(CCC)S(=O)(=O)c1ccc(C(=O)O)cc1 [probenecid]
effect on kidney uptake [4]: not significant; also recorded: none of these drugs led to a significant reduction of kidney uptake
